# Reference: article PMC4904194, “Crystal structure of tyrosine decarboxylase and identification of key residues involved in conformational swing and substrate binding” (Scientific Reports, 2016)
# Assays:
# [1] = molecular target: the molecule itself; experiment: crystal structure; LbTDC/PLP complex at a molar ratio of 1:4, 0.1 M sodium cacodylate trihydrate pH 7.0, 0.1 M MgCl2, 16% PEG 4000; space group P21
# [2] = molecular target: the molecule itself; experiment: crystal structure; apo-LbTDC, sitting-drop vapor diffusion at 18 °C, 0.1 M sodium cacodylate trihydrate pH 7.5, 0.2 M MgCl2, 18% PEG 1000; space group P21
Protein,stoichiometry N [1],stoichiometry N [2]
"Lactobacillus brevis tyrosine decarboxylase in complex with PLP, holo form (enzyme, Lactobacillus brevis CGMCC 1.2028, PLP covalently attached to the ε-amino group of K392 (internal aldimine, Schiff base), Tyrosine decarboxylase (TDC, EC 4.1.1.25) of Lactobacillus brevis CGMCC 1.2028; domains in the structure span residues 7-618; also called holo-LbTDC; LbTDC/PLP complex; source: E. coli BL21(DE3) harboring pET24a-tdc, purified (Ni2+-agarose column); crystallized with PLP at a molar ratio of 1:4) MEKSNRSLKDLDLNALFIGDKAENGQLYKDLLNKLVDEHLGWRKNYIPSDPNMIGPEDQNSPAFKKTVGHMKTVLDQLSERIRTESVPWHSAGRYWGHMNSETLMPALLAYNYAMLWNGNNVAYESSPATSQMEEEVGQEFARLMGYDYGWGHIVADGSLANLEGLWYARNIKSLPFAMKEVNPELVAGKSDWELLNMPTKEIMDLLENAGSQIDEVKKRSARSGKNLQRLGKWLVPQTKHYSWMKAADIIGIGLDQVVPVPIDSNYRMDIQALESIIRKYAAEKTPILGVVGVAGSTEEGAVDGIDKIVALRQKLQKEGIYFYLHVDAAYGGYARALFLDEDDQFIPYKNLQKVHAENHVFTEDKEYIKPEVYAAYKAFDQAESITIDPHKMGYVPYSAGGIVIQDIRMRDTISYFATYVFEKGADIPALLGAYILEGSKAGATAASVWAAHHTLPLNVTGYGKLEGASIEGAHRYYDFLKNLKFEVAGKRISVHPLISPDFNMVDYVLKEDGNDDLIEMNRLNHAFYEQASYVKGSLYGKEYIVSHTDFAIPDYGDSPLAFVESLGFSEVEWRHAGKVTIIRASVMTPYMNQRENFDYFAPRIKKAIQADLEKVYASVNQKENV",2,–
"Lactobacillus brevis tyrosine decarboxylase, apo form (without PLP) (enzyme, Lactobacillus brevis CGMCC 1.2028, Tyrosine decarboxylase (TDC, EC 4.1.1.25) of Lactobacillus brevis CGMCC 1.2028; domains in the structure span residues 7-618; A selenomethionine form was used only for phasing; also called apo-LbTDC; LbTDC; source: E. coli BL21(DE3) harboring pET24a-tdc, purified (Ni2+-agarose column)) MEKSNRSLKDLDLNALFIGDKAENGQLYKDLLNKLVDEHLGWRKNYIPSDPNMIGPEDQNSPAFKKTVGHMKTVLDQLSERIRTESVPWHSAGRYWGHMNSETLMPALLAYNYAMLWNGNNVAYESSPATSQMEEEVGQEFARLMGYDYGWGHIVADGSLANLEGLWYARNIKSLPFAMKEVNPELVAGKSDWELLNMPTKEIMDLLENAGSQIDEVKKRSARSGKNLQRLGKWLVPQTKHYSWMKAADIIGIGLDQVVPVPIDSNYRMDIQALESIIRKYAAEKTPILGVVGVAGSTEEGAVDGIDKIVALRQKLQKEGIYFYLHVDAAYGGYARALFLDEDDQFIPYKNLQKVHAENHVFTEDKEYIKPEVYAAYKAFDQAESITIDPHKMGYVPYSAGGIVIQDIRMRDTISYFATYVFEKGADIPALLGAYILEGSKAGATAASVWAAHHTLPLNVTGYGKLEGASIEGAHRYYDFLKNLKFEVAGKRISVHPLISPDFNMVDYVLKEDGNDDLIEMNRLNHAFYEQASYVKGSLYGKEYIVSHTDFAIPDYGDSPLAFVESLGFSEVEWRHAGKVTIIRASVMTPYMNQRENFDYFAPRIKKAIQADLEKVYASVNQKENV",–,2
